Measurements from PMC9352680, “A comprehensive thermodynamic model for RNA binding by the Saccharomyces cerevisiae Pumilio protein PUF4”.

Target: T1, PUF4 RNA-binding domain (Saccharomyces cerevisiae, UniProt P25339 537-888)
T1 sequence: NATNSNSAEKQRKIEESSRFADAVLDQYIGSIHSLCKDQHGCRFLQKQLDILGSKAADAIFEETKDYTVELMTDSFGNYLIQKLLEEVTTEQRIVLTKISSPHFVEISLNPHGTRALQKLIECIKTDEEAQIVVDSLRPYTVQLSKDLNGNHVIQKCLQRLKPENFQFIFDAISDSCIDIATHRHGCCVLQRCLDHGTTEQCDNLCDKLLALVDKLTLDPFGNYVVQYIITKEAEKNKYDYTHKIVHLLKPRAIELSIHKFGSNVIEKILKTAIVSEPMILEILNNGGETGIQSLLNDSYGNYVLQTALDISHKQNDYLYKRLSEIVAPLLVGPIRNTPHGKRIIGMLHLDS
Assay: Mg; RNA-MaP; 20 mM Na-HEPES pH 7.4, 30 mM KOAc, 0.75 mM MgCl2, 0.1% Tween-20, 5% glycerol, 0.1 mg/mL BSA, 2 mM DTT; 25 C; 0.0125-409.6 nM protein
Details: tags: N-His6-TEV cleaved; C-SNAP kept, Cy3B-labelled; label: tethered on chip by stalled RNA polymerase

B1: Id_ii_S4_P5E.4_K5.3_C5.2_[C-2A]_[T-1C]_H5.3_A5.1_F5.1_T5.2_[A12G] (ssRNA)
RNA: UUUGACAACUGAUCGUUCUUUCUACACACUUAUUAUGUUCUUUCUCGAUCAGUUGUCUUU
In the case of B1, the Kd is reported as > 2300 nM.

B2: Id_ii_S4_P5E.4_K5.3_C5.2_[C-2A]_[T-1A]_H5.3_A5.1_F5.1_T5.2 (ssRNA)
RNA: UUUGACAACUGAUCGUUCUUUCUAAACACUUAUUAUAUUCUUUCUCGAUCAGUUGUCUUU
B2 gave a Kd of 845 nM.

For UCUCUUUGUUGUAUUAUCUCUU (ssRNA) [Ib_S1_P5E.1_K5.1_C5.1_H5.1_[A4T]_A5.1_[T5G]_F5.1_T5.1], the Kd was 22.2 nM.

B3: Id_ii_S4_P5E.4_K5.3_C5.2_[C-2A]_H5.3_A5.1_F5.1_T5.2_[A12G] (ssRNA)
RNA: UUUGACAACUGAUCGUUCUUUCUAUACACUUAUUAUGUUCUUUCUCGAUCAGUUGUCUUU
Work on B3 yielded a Kd of 1530 nM.

B4: Id_ii_S4_P5E.4_K5.3_C5.2_[C-2A]_H5.3_A5.1_F5.1_T5.2_[A12T] (ssRNA)
RNA: UUUGACAACUGAUCGUUCUUUCUAUACACUUAUUAUUUUCUUUCUCGAUCAGUUGUCUUU
B4 gave a Kd of 467 nM.

B5: Id_ii_S4_P5E.4_K5.3_C5.2_[T-1G]_H5.3_A5.1_F5.1_T5.2 (ssRNA)
RNA: UUUGACAACUGAUCGUUCUUUCUCGACACUUAUUAUAUUCUUUCUCGAUCAGUUGUCUUU
B5 gave a Kd of 1170 nM.

B6: Id_ii_S4_P5E.4_K5.3_C5.2_[T-1C]_H5.3_A5.1_F5.1_T5.2_[T11C]_[A12T] (ssRNA)
RNA: UUUGACAACUGAUCGUUCUUUCUCCACACUUAUUACUUUCUUUCUCGAUCAGUUGUCUUU
In the case of B6, the Kd is reported as > 2300 nM.

B7: Id_ii_S4_P5E.4_K5.3_C5.2_[T-1C]_H5.3_A5.1_F5.1_T5.2_[A12G] (ssRNA)
RNA: UUUGACAACUGAUCGUUCUUUCUCCACACUUAUUAUGUUCUUUCUCGAUCAGUUGUCUUU
For B7, the Kd was > 2300 nM.

B8: Id_ii_S4_P5E.4_K5.3_C5.2_H5.3_A5.1_F5.1_T5.2_[T11G]_[A12C] (ssRNA)
RNA: UUUGACAACUGAUCGUUCUUUCUCUACACUUAUUAGCUUCUUUCUCGAUCAGUUGUCUUU
B8 was tested, and the Kd was > 2300 nM.

B9: Id_ii_S4_P5E.4_K5.3_C5.2_H5.3_A5.1_F5.1_T5.2_[A12T] (ssRNA)
RNA: UUUGACAACUGAUCGUUCUUUCUCUACACUUAUUAUUUUCUUUCUCGAUCAGUUGUCUUU
For B9, the Kd was > 2300 nM.

Work on UCUCUUCCUUGUAUAUAUAUCUCUU (ssRNA) [Ie_S1_P3E.2_K3.1_C3.2_[+-2C]_H3.1_A3.1_F3.1_T3.2] yielded a Kd of 6.23 nM.

UCUCUUACUUGUAUAUAUAUCUCUU (ssRNA) [Id_iii_S1_P3E.5_K3.1_C3.3_[T-3A]_H3.1_A3.1_F3.1_T3.2] was tested, and the Kd was 5.04 nM.

Binder UCUCUUUGUUGUAUAUAUAUCUCUU (ssRNA) [Id_iii_S1_P3E.5_K3.1_C3.3_[C-2G]_H3.1_A3.1_F3.1_T3.2] has a Kd of 5.21 nM.

UCUCUUUGUUCUAUUAUCUCUU (ssRNA) [Ib_S1_P5E.1_K5.1_C5.1_H5.1_[A4T]_A5.1_[T5C]_F5.1_T5.1] gave a Kd of 31.7 nM.

With UCUCUUUUUUGUAUAUAUAUCUCUU (ssRNA) [Id_iii_S1_P3E.5_K3.1_C3.3_[C-2T]_H3.1_A3.1_F3.1_T3.2] the Kd was 6.24 nM.

With UCUCUUUAUUGUAUAUAUAUCUCUU (ssRNA) [Id_iii_S1_P3E.5_K3.1_C3.3_[C-2A]_H3.1_A3.1_F3.1_T3.2] the Kd was 9.45 nM.

For UCUCUUUCGUGUAUAUAUAUCUCUU (ssRNA) [Id_iii_S1_P3E.5_K3.1_C3.3_[T-1G]_H3.1_A3.1_F3.1_T3.2], the Kd was 6.72 nM.

UCUCUUUCCUGUAUAUAUAUCUCUU (ssRNA) [Id_iii_S1_P3E.5_K3.1_C3.3_[T-1C]_H3.1_A3.1_F3.1_T3.2] showed a Kd of 4.14 nM.

Binder UCUCUUUCAUGUAUAUAUAUCUCUU (ssRNA) [Id_iii_S1_P3E.5_K3.1_C3.3_[T-1A]_H3.1_A3.1_F3.1_T3.2] has a Kd of 6.5 nM.

UCUCUUUCUUGUAUAUAUGUCUCUU (ssRNA) [Id_iii_S1_P3E.5_K3.1_C3.3_H3.1_A3.1_F3.1_T3.2_[A10G]] was tested, and the Kd was 7.51 nM.

With UCUCUUUCUUGUAUAUAUCUCUCUU (ssRNA) [Id_iii_S1_P3E.5_K3.1_C3.3_H3.1_A3.1_F3.1_T3.2_[A10C]] the Kd was 6.06 nM.

UCUCUUUCUUGUAUAUAUUUCUCUU (ssRNA) [Id_iii_S1_P3E.5_K3.1_C3.3_H3.1_A3.1_F3.1_T3.2_[A10T]] gave a Kd of 6.04 nM.

In the case of UCUCUUGCUUAUAUAUAUAUCUCUU (ssRNA) [Id_iii_S1_P3E.6_K3.2_C3.3_[T-3G]_H3.2_A3.1_F3.1_T3.2], the Kd is reported as 380 nM.

UCUCUUCCUUAUAUAUAUAUCUCUU (ssRNA) [Id_iii_S1_P3E.6_K3.2_C3.3_[T-3C]_H3.2_A3.1_F3.1_T3.2] showed a Kd of 364 nM.

For UCUCUUUGUGUCAUUAUCUCUU (ssRNA) [Ib_S1_P5E.1_K5.1_C5.1_H5.1_[A4G]_A5.1_[T6C]_F5.1_T5.1], the Kd was 30.7 nM.

For UCUCUUACUUAUAUAUAUAUCUCUU (ssRNA) [Id_iii_S1_P3E.6_K3.2_C3.3_[T-3A]_H3.2_A3.1_F3.1_T3.2], the Kd was 113 nM.

Work on UCUCUUUUUUAUAUAUAUAUCUCUU (ssRNA) [Id_iii_S1_P3E.6_K3.2_C3.3_[C-2T]_H3.2_A3.1_F3.1_T3.2] yielded a Kd of 486 nM.

Binder UCUCUUUAUUAUAUAUAUAUCUCUU (ssRNA) [Id_iii_S1_P3E.6_K3.2_C3.3_[C-2A]_H3.2_A3.1_F3.1_T3.2] has a Kd of 373 nM.

UCUCUUUCGUAUAUAUAUAUCUCUU (ssRNA) [Id_iii_S1_P3E.6_K3.2_C3.3_[T-1G]_H3.2_A3.1_F3.1_T3.2] showed a Kd of 502 nM.

With UCUCUUUCAUAUAUAUAUAUCUCUU (ssRNA) [Id_iii_S1_P3E.6_K3.2_C3.3_[T-1A]_H3.2_A3.1_F3.1_T3.2] the Kd was 592 nM.

In the case of UCUCUUUCUUAUAUAUACAUCUCUU (ssRNA) [Id_iii_S1_P3E.6_K3.2_C3.3_H3.2_A3.1_F3.1_T3.2_[T9C]], the Kd is reported as 972 nM.

Work on UCUCUUUCUUAUAUAUAUGUCUCUU (ssRNA) [Id_iii_S1_P3E.6_K3.2_C3.3_H3.2_A3.1_F3.1_T3.2_[A10G]] yielded a Kd of 755 nM.

UCUCUUACUACACUAUAUAUCUCUU (ssRNA) [Id_iii_S1_P3E.7_K3.3_C3.3_[T-3A]_H3.3_A3.1_F3.1_T3.2] was tested, and the Kd was 900 nM.

UCUCUUUGUACACUAUAUAUCUCUU (ssRNA) [Id_iii_S1_P3E.7_K3.3_C3.3_[C-2G]_H3.3_A3.1_F3.1_T3.2] showed a Kd of 1.32 nM.

In the case of UCUCUUUUUACACUAUAUAUCUCUU (ssRNA) [Id_iii_S1_P3E.7_K3.3_C3.3_[C-2T]_H3.3_A3.1_F3.1_T3.2], the Kd is reported as 2050 nM.

With UCUCUUUGUGUAAUUAUCUCUU (ssRNA) [Ib_S1_P5E.1_K5.1_C5.1_H5.1_[A4G]_A5.1_[T6A]_F5.1_T5.1] the Kd was 27.5 nM.

UCUCUUUAUACACUAUAUAUCUCUU (ssRNA) [Id_iii_S1_P3E.7_K3.3_C3.3_[C-2A]_H3.3_A3.1_F3.1_T3.2] showed a Kd of 31.6 nM.

With UCUCUUUCAACACUAUAUAUCUCUU (ssRNA) [Id_iii_S1_P3E.7_K3.3_C3.3_[T-1A]_H3.3_A3.1_F3.1_T3.2] the Kd was 1700 nM.

UCUCUUUCUACACUAUACAUCUCUU (ssRNA) [Id_iii_S1_P3E.7_K3.3_C3.3_H3.3_A3.1_F3.1_T3.2_[T9C]] showed a Kd of 2260 nM.

In the case of UCUCUUUCUACACUAUAUUUCUCUU (ssRNA) [Id_iii_S1_P3E.7_K3.3_C3.3_H3.3_A3.1_F3.1_T3.2_[A10T]], the Kd is reported as 2010 nM.

UCUCUUGCUUGUAAAUAUAUCUCUU (ssRNA) [Id_iii_S1_P3E.8_K3.4_C3.3_[T-3G]_H3.1_A3.2_F3.1_T3.2] was tested, and the Kd was 20.2 nM.

For UCUCUUCCUUGUAAAUAUAUCUCUU (ssRNA) [Id_iii_S1_P3E.8_K3.4_C3.3_[T-3C]_H3.1_A3.2_F3.1_T3.2], the Kd was 16.5 nM.

For UCUCUUACUUGUAAAUAUAUCUCUU (ssRNA) [Id_iii_S1_P3E.8_K3.4_C3.3_[T-3A]_H3.1_A3.2_F3.1_T3.2], the Kd was 25.7 nM.

UCUCUUUUUUGUAAAUAUAUCUCUU (ssRNA) [Id_iii_S1_P3E.8_K3.4_C3.3_[C-2T]_H3.1_A3.2_F3.1_T3.2] gave a Kd of 17.6 nM.

For UCUCUUUAUUGUAAAUAUAUCUCUU (ssRNA) [Id_iii_S1_P3E.8_K3.4_C3.3_[C-2A]_H3.1_A3.2_F3.1_T3.2], the Kd was 18.2 nM.

Binder UCUCUUUCGUGUAAAUAUAUCUCUU (ssRNA) [Id_iii_S1_P3E.8_K3.4_C3.3_[T-1G]_H3.1_A3.2_F3.1_T3.2] has a Kd of 18.6 nM.
